Test in all cases: X-ray crystallography
For series [1], the target named is T1, Sac7d V26A/M29A (Sulfolobus acidocaldarius, UniProt P13123 1-66, V26A;M29A).
T1 sequence: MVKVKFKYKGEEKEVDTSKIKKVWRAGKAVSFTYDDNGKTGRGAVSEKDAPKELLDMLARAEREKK

A further series has as its target T2, Sac7d M29A (Sulfolobus acidocaldarius, UniProt P13123 1-66, M29A).
T2 sequence: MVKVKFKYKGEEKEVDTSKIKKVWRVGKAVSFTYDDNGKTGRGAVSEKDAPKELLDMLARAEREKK

Another series addresses T3, Sac7d V26F/M29F (Sulfolobus acidocaldarius, UniProt P13123 1-66, V26F;M29F).
T3 sequence: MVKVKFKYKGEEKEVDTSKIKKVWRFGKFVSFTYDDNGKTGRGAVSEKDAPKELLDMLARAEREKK

Series [2] addresses T1, Sac7d V26A/M29A. This is another data set of the same source.
A further series deals with T4, Sac7d V26A (Sulfolobus acidocaldarius, UniProt P13123 1-66, V26A).
T4 sequence: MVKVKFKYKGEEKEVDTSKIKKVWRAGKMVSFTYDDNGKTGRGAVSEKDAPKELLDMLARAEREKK

Series [3] concerns the target T5, Sac7d M29F (Sulfolobus acidocaldarius, UniProt P13123 1-66, M29F).
T5 sequence: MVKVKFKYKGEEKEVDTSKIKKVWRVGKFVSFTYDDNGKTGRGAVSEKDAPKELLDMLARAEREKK

Series [4] has as its target T5, Sac7d M29F. The source holds these as a separate data set.
The target of series [5] is T1, Sac7d V26A/M29A. This is another data set of the same source.

Experimental findings from PMC546169 are described below.

Where two headings read alike, the source gives them in different places.

B1: GCGATiCGC duplex (dsDNA)
DNA 1: GCGAUCGC
DNA 2: GCGAUCGC
modifications: DNA with iodo derivative at position 5 (printed Ti; presumably iodo-dU)
For the molecule B1, the binding result with Sac7d V26A/M29A [1] is given as “binds”.

B2: GCGATCGC duplex (dsDNA)
DNA 1: GCGATCGC
DNA 2: GCGATCGC
As to B2, the binding result with Sac7d M29A, with Sac7d V26F/M29F, with Sac7d V26A/M29A [2], in the series with Sac7d V26A and in the series with Sac7d M29F [3] was “binds” each time.

B3: GTAATTAC duplex (dsDNA)
DNA 1: GTAATTAC
DNA 2: GTAATTAC
Take B3: the binding result with Sac7d M29F [4], with Sac7d M29A and with Sac7d V26A was “binds” throughout.

B4: GCGAUbrCGC duplex (dsDNA)
DNA 1: GCGAUCGC
DNA 2: GCGAUCGC
modifications: DNA with bromo-dU at position 5 of each strand
As for B4, the binding result with Sac7d M29F [4] and with Sac7d V26A/M29A [5] was “binds” throughout.
